Where a chain is given by its changes, count along the chain named. Numbers in names are those of the source.

Experiment [1] addresses T1, recombinant purified Atg11 (Atg11-His6) (yeast, UniProt Q12527 1-1178, Atto565 label in the GUV experiments).
T1 construct: N-terminal residual glycine-proline from PreScission protease digestion; Atg11, yeast; expressed from pCoofy37-Atg11; measured molecular weight 136 kDa; also called His-tagged Atg11; Atg11^Atto565; source: E. coli BL21 (DE3), coexpressed with chaperones from pG-KJE8, purified (Ni-NTA, PreScission digestion, gel filtration); not shown: His6, C-terminal, kept
T1 sequence: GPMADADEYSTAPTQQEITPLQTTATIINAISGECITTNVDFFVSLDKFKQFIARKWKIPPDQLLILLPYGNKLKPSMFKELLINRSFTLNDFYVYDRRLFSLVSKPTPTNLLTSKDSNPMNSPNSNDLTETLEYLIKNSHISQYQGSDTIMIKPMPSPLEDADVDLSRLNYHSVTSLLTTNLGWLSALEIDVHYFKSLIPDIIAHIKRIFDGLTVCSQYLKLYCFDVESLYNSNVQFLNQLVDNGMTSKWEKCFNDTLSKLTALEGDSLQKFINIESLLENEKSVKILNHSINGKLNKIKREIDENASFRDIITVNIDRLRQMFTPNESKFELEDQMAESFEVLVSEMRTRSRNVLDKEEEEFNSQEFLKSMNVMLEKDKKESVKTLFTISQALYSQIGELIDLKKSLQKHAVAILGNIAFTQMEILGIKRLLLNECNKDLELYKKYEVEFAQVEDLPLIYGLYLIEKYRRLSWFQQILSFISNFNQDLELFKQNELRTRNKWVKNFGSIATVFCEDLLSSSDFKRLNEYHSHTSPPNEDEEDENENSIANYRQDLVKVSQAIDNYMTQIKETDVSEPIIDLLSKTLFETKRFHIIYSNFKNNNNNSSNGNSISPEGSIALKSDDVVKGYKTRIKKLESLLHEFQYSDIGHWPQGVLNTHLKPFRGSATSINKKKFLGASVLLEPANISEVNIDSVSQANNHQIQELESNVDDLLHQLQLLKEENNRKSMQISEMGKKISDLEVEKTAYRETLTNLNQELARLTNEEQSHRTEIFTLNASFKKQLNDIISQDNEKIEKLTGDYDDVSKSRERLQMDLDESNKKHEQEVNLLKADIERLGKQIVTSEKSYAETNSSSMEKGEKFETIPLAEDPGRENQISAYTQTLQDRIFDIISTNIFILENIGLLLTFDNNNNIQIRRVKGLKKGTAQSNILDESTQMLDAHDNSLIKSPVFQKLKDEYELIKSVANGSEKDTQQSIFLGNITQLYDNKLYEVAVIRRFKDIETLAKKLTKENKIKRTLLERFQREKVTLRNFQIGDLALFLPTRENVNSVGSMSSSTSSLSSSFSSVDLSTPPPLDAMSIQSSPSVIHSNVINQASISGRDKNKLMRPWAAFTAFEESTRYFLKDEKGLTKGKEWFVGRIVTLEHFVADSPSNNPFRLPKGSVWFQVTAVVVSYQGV
Description: pull-down; 10 μg recombinant GST-tagged bait coupled to Glutathione-resin, with recombinant Atg11; SDS-PAGE. The conditions noted are these: both partners purified.

Experiment [2] addresses T2, Atg9^core reconstituted in proteoliposomes (yeast, UniProt Q12142 281-779).
T2 sequence (looked up): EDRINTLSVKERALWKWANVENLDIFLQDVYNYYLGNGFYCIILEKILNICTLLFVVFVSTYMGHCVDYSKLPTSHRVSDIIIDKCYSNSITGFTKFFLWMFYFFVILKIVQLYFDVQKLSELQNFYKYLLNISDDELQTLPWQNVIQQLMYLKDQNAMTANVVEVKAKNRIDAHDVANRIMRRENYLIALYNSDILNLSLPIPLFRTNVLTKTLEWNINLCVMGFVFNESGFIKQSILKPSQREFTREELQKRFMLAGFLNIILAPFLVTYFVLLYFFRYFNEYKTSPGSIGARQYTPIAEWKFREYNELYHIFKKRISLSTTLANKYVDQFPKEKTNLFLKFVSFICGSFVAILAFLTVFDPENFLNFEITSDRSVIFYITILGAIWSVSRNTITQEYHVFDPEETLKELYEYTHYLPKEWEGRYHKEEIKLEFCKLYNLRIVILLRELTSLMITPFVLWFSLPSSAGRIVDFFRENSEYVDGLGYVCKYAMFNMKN
The experiment in a line: cell-based or functional assay.

For the next experiment, the target named is T3, HA-tagged Atg9 (S. cerevisiae, UniProt Q12142 1-997).
T3 construct: Atg9, transmembrane autophagy protein, yeast; also called HA-Atg9; source: yeast cells expressing HA-tagged Atg9, in lysate
T3 sequence (looked up): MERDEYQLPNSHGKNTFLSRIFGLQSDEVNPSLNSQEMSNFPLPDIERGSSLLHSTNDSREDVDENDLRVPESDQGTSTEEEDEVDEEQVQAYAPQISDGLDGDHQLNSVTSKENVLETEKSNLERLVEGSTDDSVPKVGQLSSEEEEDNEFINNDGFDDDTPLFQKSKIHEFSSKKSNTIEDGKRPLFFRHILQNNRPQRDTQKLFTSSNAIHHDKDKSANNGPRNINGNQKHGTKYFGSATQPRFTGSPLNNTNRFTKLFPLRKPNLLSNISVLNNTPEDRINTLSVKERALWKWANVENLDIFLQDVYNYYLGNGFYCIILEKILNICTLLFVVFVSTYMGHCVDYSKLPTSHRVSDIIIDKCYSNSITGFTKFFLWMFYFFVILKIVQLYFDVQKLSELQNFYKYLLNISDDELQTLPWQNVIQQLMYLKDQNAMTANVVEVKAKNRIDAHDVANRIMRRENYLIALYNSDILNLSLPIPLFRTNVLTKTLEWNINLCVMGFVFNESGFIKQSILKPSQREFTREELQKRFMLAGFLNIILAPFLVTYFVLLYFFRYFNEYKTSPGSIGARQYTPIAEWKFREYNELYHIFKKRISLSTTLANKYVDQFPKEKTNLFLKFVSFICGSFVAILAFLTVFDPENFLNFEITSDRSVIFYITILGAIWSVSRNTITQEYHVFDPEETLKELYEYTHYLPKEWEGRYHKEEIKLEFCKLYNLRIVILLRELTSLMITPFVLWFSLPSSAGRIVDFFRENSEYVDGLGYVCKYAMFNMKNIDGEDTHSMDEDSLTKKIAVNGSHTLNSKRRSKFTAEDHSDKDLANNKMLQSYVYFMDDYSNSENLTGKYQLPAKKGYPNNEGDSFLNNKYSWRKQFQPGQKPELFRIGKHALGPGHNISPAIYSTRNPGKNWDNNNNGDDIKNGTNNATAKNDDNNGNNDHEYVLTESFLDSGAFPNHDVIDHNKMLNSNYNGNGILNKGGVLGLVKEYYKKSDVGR
Description: co-IP; competition: purified Atg17 (0, 1, 4 μM) added to lysates of nonstarved cells; IP of Atg11-myc, HA-Atg9 detected by blot. Conditions: one partner purified.

Experiment [3] concerns the target T2, Atg9^core reconstituted in …. Description: co-floatation with proteoliposomes; competition: Atg11 and Atg17 coincubated with Atg9-PLs at different stoichiometric ratios (Atg11 kept constant); floated fraction on SDS-PAGE, amounts from band intensities. Conditions: both partners purified.

B1: GST-tagged wild-type Atg29 (natural protein, yeast, UniProt Q12092 1-213, looked up)
chain: MIMNSTNTVVYIKVKGRRPQGFLDPPKFEWNGTKERQLWTMVSNLNYSQDQIDWQNLSKIFETPEFFLKKRTYKLFAEHLELLQLQLEKKRDLEKYSNDQVNEGMSDLIHKYTPTLQNDNLLNVSASPLTTERQDSEEVETEVTNEALQHLQTSKILNIHKKTSDSENKPNDKLDKDGINKEMECGSSDDDLSSSLSVSKSALEEALMDRLQF
notes: Atg29, yeast; also called GST-Atg29^WT; Atg29^WT
Turning to B1, the binding result in experiment [1] is on record as “binds”.

B2: GST-tagged phosphomimetic Atg29 (Atg29^SD) (natural protein, yeast, UniProt Q12092 1-213, looked up)
chain: B1 chain with S197D, S199D, S201D
notes: Atg29, yeast, phosphomimetic variant; also called GST-Atg29^SD; Atg29^(S197D, S199D, S201D); source: recombinant, purified
B2: the binding result in experiment [1] is given as “binds”.

B3: GST-Atg31-Atg29^SD subcomplex (complex, yeast)
chain 1: MNVTVTVYDKNVKYRLEENIKNNKGPSNDDQPAYNNESKSTDGSDYAMFPTNIKYIFEDNNDELVDSSDAALTAGIDKVGDELENVIIVQLDESGSLEDITLISDQYELLSHRTNSLSLEENQMRTLSSHGDDKSNDEEEELSVDSDRFRVDSDIELDVISQFCDLSPFLRDLSLNDLIKLYVTQNEQLQMLSNSV
chain 2: B1 chain with S197D, S199D, S201D
notes: Atg31, yeast; Atg29, yeast, phosphomimetic variant; also called GST-tagged Atg31 (31) and Atg29^SD (29^SD); source: recombinant, coexpressed and purified as subcomplex
In the case of B3, in experiment [1], the binding result is given as “binds”.

B4: GST-Atg31-Atg29^WT subcomplex (complex, yeast)
chain 1: B3 chain 1
chain 2: B1 chain
notes: Atg31, yeast; Atg29, yeast; also called GST-tagged Atg31 (31) and Atg29^WT (29); source: recombinant, coexpressed and purified as subcomplex
In the case of B4, the binding result in experiment [1] is recorded as “binds”.

B5: recombinant purified Atg17 (natural protein, yeast, UniProt Q06410 1-417, looked up)
chain: MNEADVTKFVNNARKTLTDAQLLCSSANLRIVDIKKKLSSWQLSISKLNFLIVGLRQQGKFLYTILKEGIGTKLIQKQWNQAVLVVLVDEMKYWQYEITSKVQRLDGIVNELSISEKDDTDPSKLGDYISRDNVNLLNDKLKEVPVIERQIENIKLQYENMVRKVNKELIDTKLTDVTQKFQSKFGIDNLMETNVAEQFSRELTDLEKDLAEIMNSLTQHFDKTLLLQDKKIDNDEREELFKVVQGDDKELYNIFKTLHEVIDDVDKTILNLGQFLQAKIKEKTELHSEVSEIINDFNRNLEYLLIFKDISNLIDSFKNSCTQDIQTTKELCEFYDNFEESYGNLVLEAKRRKDVANRMKTILKDCEKQLQNLDAQDQEERQNFIAENGTYLPETIWPGKIDDFSSLYTLNYNVKNP
notes: Atg17, scaffolding protein of nonselective autophagy, yeast
As to B5, the “hydrodynamic radius of Atg9 vesicles against control SUVs in the presence of Atg17 (dynamic light scattering; vesicle tethering)” value in experiment [2] turned out to be 2 fold. Besides, the “molar excess of Atg17 over Atg11 for equal binding to Atg9” value with HA-tagged Atg9 worked out at 25 fold. Also, the “molar excess of Atg17 over Atg11 for similar recovery of both” value in experiment [3] is 25 fold.

The values above are taken from paper PMC6687201, “Atg11 tethers Atg9 vesicles to initiate selective autophagy” (PLoS Biology, 2019).
